Substrate: OC[C@H]1O[C@@](CO)(O[C@H]2O[C@H](CO)[C@@H](O)[C@H](O)[C@H]2O)[C@@H](O)[C@@H]1O
Assay: initial-rate kinetics, DNS reducing sugar assay, Michaelis-Menten fit
Format: biochemical, Bacillus sp. HJ14
Details: 30 °C, McIlvaine buffer pH 8.0, 1.5-36.5 mM sucrose
Description: initial-rate kinetics, DNS reducing sugar assay, Michaelis-Menten fit on rInvHJ14 (InvHJ14)

B1: rInvHJ14 (InvHJ14) (Bacillus sp. HJ14) (protein)
chain: MTTTDAALRQKIADRIRNYEHLVKKDVYRQHFHLMPPVGLLNDPNGLIQWKGIYHVFYQWQPFKTGHGAKFWGHYTSTDLVNWQHEEAALAPSDWFDQNGCYSGSAFIDDGQMHVMYTGNVRDEQGNRETYQCLAVSEDGIHFQKKGVVATLPEGFTAHFRDPKVWKRNGQWYMVLGAQSLDLKGHLVLFTSDTLDNWTFQGTIAGSGKNGLDNFGYMWECPDLFELDGRDVLIVSPQGLEPDGLKYHNTHQSGYFVGTLDDHSYQYTHGAFEELDRGFDFYAQQTFLDESGRRLLIGWMGVPDQGEEHHPTISYQWIHCLTIPRELRLDEDGHLIQKPVSELQSMRTNEQEHVFHIKRSVHSIPVEDITSAEVFIDQIDTQKGFECCIRAAARIIYDKEEGKLTLERDRFEDRSKEVREAVIEELHDLHIFIDSSSIEIFVNGGREVFTARYFPSPGNKSISISGRNETKLKLKAWHLQREADQ
notes: pEASY-E2 vector, E. coli BL21 (DE3), Ni-NTA purified, approximately 58 kDa on SDS-PAGE
Km: 62.9 mM | Vmax: 772 µmol/min/mg | kcat: 746 s⁻¹ | kcat/Km: 11900 M⁻¹ s⁻¹
